B1: Insulin C-peptide (from cleavage of fusion protein BB-C7) (peptide)
peptide: EAEDLQVGQVELGGGPGAGSLQPLALEGSLQ
B2: BB-C7 fusion protein (other)
chain: MKAIFVLNAQHDEAVDANFDQFNKYGVSDYYKNLINNAKTVEGVKDLQAQVVESAKKARISEATDGLSDFLKSQTPAEDTVKSIELAEAKVLANRELDKYGVSDYHKNLINNAKTVEGVKDLQAQVVESAKKARISEATDGLSDFLKSQTPAEDTVKSIELAEAKVLANRELDKYGVSDYYKNLINNAKTVEGVKALIDEILAALPKTDTYKLILNGKTLKGETTTEAVDAATARSFNFPILENSSSVPASQAREAEDLQVGQVELGGGPGAGSLQPLALEGSLQRTASQAREAEDLQVGQVELGGGPGAGSLQPLALEGSLQRTASQAREAEDLQVGQVELGGGPGAGSLQPLALEGSLQRTASQAREAEDLQVGQVELGGGPGAGSLQPLALEGSLQRTASQAREAEDLQVGQVELGGGPGAGSLQPLALEGSLQRTASQAREAEDLQVGQVELGGGPGAGSLQPLALEGSLQRTASQAREAEDLQVGQVELGGGPGAGSLQPLALEGSLQRTASQAVD
notes: Expressed in E. coli from pTrpBB-C7; 54.2 kDa; also called peptide product comprising the fusion partner BB and seven copies of the insulin C-peptide
B3: BB-C3 fusion protein (other)
chain: MKAIFVLNAQHDEAVDANFDQFNKYGVSDYYKNLINNAKTVEGVKDLQAQVVESAKKARISEATDGLSDFLKSQTPAEDTVKSIELAEAKVLANRELDKYGVSDYHKNLINNAKTVEGVKDLQAQVVESAKKARISEATDGLSDFLKSQTPAEDTVKSIELAEAKVLANRELDKYGVSDYYKNLINNAKTVEGVKALIDEILAALPKTDTYKLILNGKTLKGETTTEAVDAATARSFNFPILENSSSVPASQAREAEDLQVGQVELGGGPGAGSLQPLALEGSLQRTASQAREAEDLQVGQVELGGGPGAGSLQPLALEGSLQRTASQAREAEDLQVGQVELGGGPGAGSLQPLALEGSLQRTASQAVD
notes: Expressed in E. coli from pTrpBB-C3; 39.1 kDa

Legend:
[1] = target: rabbit anti-human C-peptide antiserum; test: competitive radioimmunoassay against labelled C-peptide tracer; expected concentration 3.31 nM
[2] = target: T1, human serum albumin (HSA), immobilised on Sepharose (human, UniProt P02768 25-609); test: affinity chromatography on HSA-Sepharose
T1 construct: also called HSA-Sepharose; human-serum-albumin (HSA)-Sepharose
T1 sequence (P02768 25-609 limits assumed): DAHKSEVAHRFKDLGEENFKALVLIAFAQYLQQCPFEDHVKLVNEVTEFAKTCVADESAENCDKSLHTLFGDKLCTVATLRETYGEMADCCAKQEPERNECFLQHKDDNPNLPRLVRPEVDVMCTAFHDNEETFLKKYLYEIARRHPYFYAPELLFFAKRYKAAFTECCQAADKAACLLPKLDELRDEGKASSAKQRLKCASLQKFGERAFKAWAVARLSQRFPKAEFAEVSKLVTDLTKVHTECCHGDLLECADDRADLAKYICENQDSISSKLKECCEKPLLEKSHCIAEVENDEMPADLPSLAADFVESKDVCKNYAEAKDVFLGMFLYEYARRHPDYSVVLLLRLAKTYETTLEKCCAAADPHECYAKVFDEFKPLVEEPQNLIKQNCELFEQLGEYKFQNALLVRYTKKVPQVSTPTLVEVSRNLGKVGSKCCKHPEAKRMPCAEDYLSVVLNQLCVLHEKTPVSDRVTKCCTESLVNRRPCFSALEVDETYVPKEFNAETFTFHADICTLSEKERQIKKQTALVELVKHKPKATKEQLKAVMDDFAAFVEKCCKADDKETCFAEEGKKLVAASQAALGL
Method: E. coli cells harbouring pTrpBB-C3 and pTrpBB-C7, and thus encoding the fusion proteins BB-C3 and BB-C7, respectively, were grown overnight at 37° C. in shake-flasks containing 10 ml Tryptic Soy Broth (Difco, USA) (30 g/l) supplemented with yeast extract (Difco) (5 g/l) and kanamycin monosulfate (50 mg/l). The overnight cultures were diluted 10-fold to 100 ml into baffled shake-flasks having the same type of media and grown at 37° C. Gene expression was induced at mid-log phase (A_{600 nm}≅1) by the addition of β-indole acrylic acid to 25 mg/l. Cells were harvested 20 hours after induction, by centrifugation at approximately 6000 g for 10 min. Cells were resuspended in 1/20 of the culture volume in TST (50 mM Tris-HCl pH 8.0. 200 mM NaCl, 0.05% Tween 20, 1 mM EDTA), lysed by sonication and centrifuged at approximately 40,000 g. The samples for the sonication were prepared by sedimenting the shake-flask culture by centrifugation, and thereafter resuspending the cells in 30 ml of cold TST buffer. The samples were stored on ice during a 2 minute pulsed sonication which was performed on a Sonics and Materials Inc. (Danbury, Conn., USA) Vibra Cell (500 W) using a 13 mm standard horn tip, a 70% duty cycle (20 kHz) and with the output control set to 6.5. […] Eluted fractions were monitored for protein content by absorbance measurement at 280 nm and relevant fractions were lyophilised.

| Binder | Assayed concentration [1] [nM] | Assayed concentration as percent of expected [1] [%] | binding result [2] |
| --- | --- | --- | --- |
| B1 | 2.34 | 71 | – |
| B2 | – | – | binds |
| B3 | – | – | binds |

From patent publication US20040005669A1 (CREATIVE PEPTIDES SWEDEN, published 2004)
